# Laboratory results published in the supplement of paper PMC9112550, “Optimization of the antimicrobial peptide Bac7 by deep mutational scanning” (BMC Biology, 2022).
# System: Escherichia coli TOP10
# Assay: shrunken log2 fold change of peptide-encoding DNA abundance (4.5 h post-induction vs induction); higher = less antimicrobial activity (less host growth inhibition)
# Settings: time post-induction: 4.5 h; library: site-saturation at positions 5, 18, 19, 20
# 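Further: peptides expressed intracellularly from a pBAD plasmid library in pooled LB shake-flask culture, induced with 0.3% L-arabinose, DNA abundance read by NGS, three biological replicates, DESeq2 with apeglm shrinkage.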
row,Sequence,shrunken log2 fold change
1,RRIRRRPPRLPRPRPRPDSYPRP,-0.117
2,RRIRLRPPRLPRPRPRPHYRPRP,-0.0911
3,RRIRERPPRLPRPRPRPAFRPRP,-0.0607
4,RRIRTRPPRLPRPRPRPVHNPRP,-0.159
5,RRIRFRPPRLPRPRPRPRRCPRP,0.143
6,RRIRDRPPRLPRPRPRPESGPRP,0.778
7,RRIRDRPPRLPRPRPRPVHFPRP,0.033
8,RRIRKRPPRLPRPRPRPISLPRP,0.00252
9,RRIRLRPPRLPRPRPRPKICPRP,0.0221
10,RRIRWRPPRLPRPRPRPGEMPRP,0.0495
11,RRIRFRPPRLPRPRPRPTEEPRP,0.0249
12,RRIRHRPPRLPRPRPRPCYHPRP,-0.00149
13,RRIRFRPPRLPRPRPRPHGHPRP,-0.18
14,RRIRFRPPRLPRPRPRPNIIPRP,-0.706
15,RRIRQRPPRLPRPRPRPDCVPRP,-0.0384
16,RRIRMRPPRLPRPRPRPKGEPRP,1.27
17,RRIRMRPPRLPRPRPRPVGAPRP,1.34
18,RRIRSRPPRLPRPRPRPGHGPRP,-0.254
19,RRIRCRPPRLPRPRPRPSGNPRP,-0.598
20,RRIRFRPPRLPRPRPRPPQVPRP,-0.00567
21,RRIRQRPPRLPRPRPRPCMWPRP,-0.148
22,RRIRWRPPRLPRPRPRPSNGPRP,-0.19
23,RRIRYRPPRLPRPRPRPAFMPRP,-0.658
24,RRIRQRPPRLPRPRPRPAMNPRP,-0.115
25,RRIRQRPPRLPRPRPRPYEHPRP,0.00367

row,Sequence,shrunken log2 fold change
1,RRIRWRPPRLPRPRPRPGWIPRP,0.207
2,RRIRPRPPRLPRPRPRPTELPRP,-0.126
3,RRIRRRPPRLPRPRPRPITQPRP,-0.0203
4,RRIRCRPPRLPRPRPRPFAVPRP,-0.169
5,RRIRWRPPRLPRPRPRPRSHPRP,0.273
6,RRIRKRPPRLPRPRPRPQEIPRP,0.0636
7,RRIRERPPRLPRPRPRPDVAPRP,0.087
8,RRIRMRPPRLPRPRPRPSILPRP,0.0568
9,RRIRCRPPRLPRPRPRPQYPPRP,-0.329
10,RRIRIRPPRLPRPRPRPEEKPRP,0.461
11,RRIRCRPPRLPRPRPRPTYMPRP,-0.432
12,RRIRNRPPRLPRPRPRPLWSPRP,-0.0388
13,RRIRVRPPRLPRPRPRPFASPRP,0.0656
14,RRIRRRPPRLPRPRPRPSACPRP,0.195
15,RRIRSRPPRLPRPRPRPMKVPRP,-0.0404
16,RRIRFRPPRLPRPRPRPMITPRP,-0.33
17,RRIRQRPPRLPRPRPRPAYKPRP,-0.534
18,RRIRIRPPRLPRPRPRPSLRPRP,-0.72
19,RRIRFRPPRLPRPRPRPKAEPRP,0.00911
20,RRIRVRPPRLPRPRPRPVYLPRP,-0.108
21,RRIRLRPPRLPRPRPRPTQSPRP,0.144
22,RRIRTRPPRLPRPRPRPQLRPRP,-0.12
23,RRIRARPPRLPRPRPRPRCQPRP,0.316
24,RRIRDRPPRLPRPRPRPIGMPRP,0.0484
25,RRIRVRPPRLPRPRPRPYHAPRP,-0.00207

row,Sequence,shrunken log2 fold change
1,RRIRSRPPRLPRPRPRPWLEPRP,-0.0707
2,RRIRDRPPRLPRPRPRPMSSPRP,0.0508
3,RRIRERPPRLPRPRPRPYWCPRP,-1.14
4,RRIRARPPRLPRPRPRPLSSPRP,0.2
5,RRIRSRPPRLPRPRPRPCNVPRP,-0.175
6,RRIRCRPPRLPRPRPRPVCPPRP,0.0356
7,RRIRERPPRLPRPRPRPFSNPRP,-0.441
8,RRIRERPPRLPRPRPRPEMKPRP,0.425
9,RRIRRRPPRLPRPRPRPYVEPRP,-0.482
10,RRIRPRPPRLPRPRPRPDINPRP,-0.673
11,RRIRARPPRLPRPRPRPYCLPRP,-0.729
12,RRIRKRPPRLPRPRPRPPPHPRP,0.781
13,RRIRHRPPRLPRPRPRPFARPRP,-0.107
14,RRIRFRPPRLPRPRPRPEVDPRP,0.084
15,RRIRDRPPRLPRPRPRPGAIPRP,0.271
16,RRIRMRPPRLPRPRPRPRGLPRP,0.727
17,RRIRHRPPRLPRPRPRPGVHPRP,-0.9
18,RRIRNRPPRLPRPRPRPCTRPRP,-0.184
19,RRIRSRPPRLPRPRPRPQSHPRP,-0.216
20,RRIRCRPPRLPRPRPRPEFCPRP,0.0369
21,RRIRFRPPRLPRPRPRPKQWPRP,0.133
22,RRIRYRPPRLPRPRPRPCCYPRP,-0.363
23,RRIRVRPPRLPRPRPRPLKQPRP,-0.0521
24,RRIRSRPPRLPRPRPRPYDYPRP,-0.305
25,RRIRQRPPRLPRPRPRPMFWPRP,0.0915
